B1: cSFB-FBXO42 (FBXO42 with C-terminal SFB tag) (other, UniProt Q6P3S6 1-717, looked up)
chain: MASSSDSEDDSFMAVDQEETVLEGTMDQDEEPHPVLEAEETRHNRSMSELPEEVLEYILSFLSPYQEHKTAALVCKQWYRLIKGVAHQCYHGFMKAVQEGNIQWESRTYPYPGTPITQRFSHSACYYDANQSMYVFGGCTQSSCNAAFNDLWRLDLNSKEWIRPLASGSYPSPKAGATLVVYKDLLVLFGGWTRPSPYPLHQPERFFDEIHTYSPSKNWWNCIVTTHGPPPMAGHSSCVIDDKMIVFGGSLGSRQMSNDVWVLDLEQWAWSKPNISGPSPHPRGGQSQIVIDDATILILGGCGGPNALFKDAWLLHMHSGPWAWQPLKVENEEHGAPELWCHPACRVGQCVVVFSQAPSGRAPLSPSLNSRPSPISATPPALVPETREYRSQSPVRSMDEAPCVNGRWGTLRPRAQRQTPSGSREGSLSPARGDGSPILNGGSLSPGTAAVGGSSLDSPVQAISPSTPSAPEGYDLKIGLSLAPRRGSLPDQKDLRLGSIDLNWDLKPASSSNPMDGMDNRTVGGSMRHPPEQTNGVHTPPHVASALAGAVSPGALRRSLEAIKAMSSKGPSASAALSPPLGSSPGSPGSQSLSSGETVPIPRPGPAQGDGHSLPPIARRLGHHPPQSLNVGKPLYQSMNCKPMQMYVLDIKDTKEKGRVKWKVFNSSSVVGPPETSLHTVVQGRGELIIFGGLMDKKQNVKYYPKTNALYFVRAKR
notes: Stably expressed in HEK293T cells as bait for TAP-MS; also called FBXO42 bait; not shown: C-terminal SFB tag
B2: FBXO42: purified recombinant F-box protein 42, substrate-recognition component of the SCF-type E3 ligase complex (protein)
chain: MASSSDSEDDSFMAVDQEETVLEGTMDQDEEPHPVLEAEETRHNRSMSELPEEVLEYILSFLSPYQEHKTAALVCKQWYRLIKGVAHQCYHGFMKAVQEGNIQWESRTYPYPGTPITQRFSHSACYYDANQSMYVFGGCTQSSCNAAFNDLWRLDLNSKEWIRPLASGSYPSPKAGATLVVYKDLLVLFGGWTRPSPYPLHQPERFFDEIHTYSPSKNWWNCIVTTHGPPPMAGHSSCVIDDKMIVFGGSLGSRQMSNDVWVLDLEQWAWSKPNISGPSPHPRGGQSQIVIDDATILILGGCGGPNALFKDAWLLHMHSGPWAWQPLKVENEEHGAPELWCHPACRVGQCVVVFSQAPSGRAPLSPSLNSRPSPISATPPALVPETREYRSQSPVRSMDEAPCVNGRWGTLRPRAQRQTPSGSREGSLSPARGDGSPILNGGSLSPGTAAVGGSSLDSPVQAISPSTPSAPEGYDLKIGLSLAPRRGSLPDQKDLRLGSIDLNWDLKPASSSNPMDGMDNRTVGGSMRHPPEQTNGVHTPPHVASALAGAVSPGALRRSLEAIKAMSSKGPSASAALSPPLGSSPGSPGSQSLSSGETVPIPRPGPAQGDGHSLPPIARRLGHHPPQSLNVGKPLYQSMNCKPMQMYVLDIKDTKEKGRVKWKVFNSSSVVGPPETSLHTVVQGRGELIIFGGLMDKKQNVKYYPKTNALYFVRAKR
modifications: left off: small tags and cut ends
notes: purified recombinant F-box protein 42, substrate-recognition component of the SCF-type E3 ligase complex

Legend:
CUL1 = biological target: T1, CUL1 (UniProt Q13616 1-776); experiment: TAP-MS with FBXO42 as the bait in HEK293T cells
T1 construct: also called Cullin-1
Protocol: TAP purification was performed as described previously (W Bian et al., Low-density-lipoprotein-receptor-related protein 1 mediates Notch pathway activation. Dev Cell 56, 2902-2919 e2908 (2021)). Briefly, 1×10⁸ HEK293T cells stably expressing cSFB-RBPJ or FBXO42 were lysed in 5 ml of NETN buffer (with protease inhibitors) at 4° C. for 30 min followed by TurboNuclease treatment. The lysate was then incubated with streptavidin-conjugated beads (Thermo Fisher Scientific, Waltham, MA) for 2 h at 4° C. After washing with NETN buffer, the bound proteins were eluted with NETN buffer containing 2 mg/mL biotin (Sigma, St. Louis, MO) for 2 h at 4° C. The eluates were then incubated with S-protein beads (EMD Millipore, Burlington, […]) for 4 h. The beads were washed three times with NETN buffer and subjected to SDS-PAGE, followed by Coomassie blue staining. The whole band was excised and subjected to in-gel trypsin digestion and MS analysis.
FBXO42 is a substrate-recognition component of the SKP1-CUL1-F-box protein (SCF)-type E3 ligase complex, which has been previously reported to promote p53 ubiquitination and degradation (L. Sun et al., JFK, a Kelch domain-containing F-box protein, links the SCF complex to p53 regulation. Proc Natl Acad Sci USA 106,10195-10200 (2009)). […]

[1] = biological target: cSFB-tagged RBPJ (recombination signal-binding protein of immunoglobulin kappa J region with C-terminal SFB tag), Q06330; experiment: biomolecular interaction kinetics with purified proteins; RBPJ at 225 nM loaded on SA probe, FBXO42 at 19.5-625 nM; conditions: remark: other sources report otherwise
RBPJ = biological target: T2, RBPJ (Homo sapiens, UniProt Q06330); experiment: Biomolecular interaction analysis with purified recombinant RBPJ and FBXO42 proteins; type: binding; conditions: in vitro, RBPJ 225 nM on SA probe, FBXO42 19.5 nM-625 nM (FIG. 3I)
T2 construct: SFB (cSFB) (C); made in house; host or cells: 293F cells
Text: (A) Interaction network of FBXO42. Top 50 interactors identified in TAP-MS was shown. (B) KEGG enrichment analysis of preys acquired in FBXO42 tandem-affinity purification (TAP)-MS. The x-axis represents gene ratio=count/set size. The size of the dots represents the number of genes associated with the GO term and the color of the dots represent the adjusted P-values. (C) Circos plot showing overlapping RBPJ and FBXO42 preys. Purple lines link the genes that shared by RBPJ and FBXO42. Blue lines link different genes enriched in the same ontology term. (D and E) HEK293T cell lysates were incubated with IgG control and antibodies against FBXO42 (D) or RBPJ (E). Five percent lysate was used as the input control. Blots with antibodies recognizing RBPJ, FBXO42 and Actin are shown. (F and G) HEK293T cells were cotransfected with Myc-tagged FBXO42 and cSFB-tagged RBPJ, as indicated. The cell lysates were incubated with S beads (F) or an anti-MYC antibody (G). Five percent lysate was used as the input control. Blots with antibodies recognizing the FLAG and MYC epitope tags and Actin are shown. (H) Coomassie blue staining of cSFB-tagged RBPJ and FLAG-FBXO42 proteins purified from 293F cells. (I) Biomolecular interaction kinetics curve showing the binding affinity between purified RBPJ and FBXO42 proteins. The RBPJ was used at 225 nM for binding to SA probe. […]

Sequence of cSFB-tagged RBPJ (recombination signal-binding protein of immunoglobulin kappa J region with C-terminal SFB tag), Q06330 (Q06330 whole entry): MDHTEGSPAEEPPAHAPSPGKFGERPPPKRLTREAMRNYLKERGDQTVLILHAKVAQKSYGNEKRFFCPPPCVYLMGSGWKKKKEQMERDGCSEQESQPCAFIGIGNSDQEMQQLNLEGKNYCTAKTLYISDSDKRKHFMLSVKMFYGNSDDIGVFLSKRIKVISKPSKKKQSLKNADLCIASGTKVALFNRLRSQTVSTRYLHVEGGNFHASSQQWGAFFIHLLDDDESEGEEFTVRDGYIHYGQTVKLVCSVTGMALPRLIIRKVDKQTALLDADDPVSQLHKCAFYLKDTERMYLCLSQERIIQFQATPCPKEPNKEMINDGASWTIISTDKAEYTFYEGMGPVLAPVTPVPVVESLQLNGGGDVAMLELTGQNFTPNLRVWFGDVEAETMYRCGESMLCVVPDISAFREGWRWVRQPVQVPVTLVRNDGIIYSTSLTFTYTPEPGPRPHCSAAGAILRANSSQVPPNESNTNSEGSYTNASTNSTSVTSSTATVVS
T2 sequence (Q06330 whole entry): as above
T1 sequence (Q13616 whole entry): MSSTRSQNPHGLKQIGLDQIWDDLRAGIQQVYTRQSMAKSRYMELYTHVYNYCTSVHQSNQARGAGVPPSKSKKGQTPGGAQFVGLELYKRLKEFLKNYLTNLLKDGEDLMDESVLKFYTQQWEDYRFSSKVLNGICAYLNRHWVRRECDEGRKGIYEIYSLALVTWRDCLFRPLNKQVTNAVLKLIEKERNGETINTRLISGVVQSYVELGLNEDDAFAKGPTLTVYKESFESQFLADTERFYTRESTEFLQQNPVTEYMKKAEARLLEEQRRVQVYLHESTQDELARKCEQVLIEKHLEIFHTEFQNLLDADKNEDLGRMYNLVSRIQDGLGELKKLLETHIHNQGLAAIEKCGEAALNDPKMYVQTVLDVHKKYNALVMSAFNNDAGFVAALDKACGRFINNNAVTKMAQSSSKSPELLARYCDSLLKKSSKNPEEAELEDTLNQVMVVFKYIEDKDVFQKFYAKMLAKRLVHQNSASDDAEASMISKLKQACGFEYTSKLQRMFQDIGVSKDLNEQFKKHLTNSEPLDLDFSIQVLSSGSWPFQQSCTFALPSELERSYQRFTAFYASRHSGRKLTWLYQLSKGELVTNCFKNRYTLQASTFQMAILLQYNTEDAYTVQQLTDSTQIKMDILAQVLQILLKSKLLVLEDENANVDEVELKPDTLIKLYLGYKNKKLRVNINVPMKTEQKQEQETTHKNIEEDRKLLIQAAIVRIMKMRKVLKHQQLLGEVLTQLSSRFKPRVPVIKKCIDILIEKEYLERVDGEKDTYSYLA

| Molecule | binding result (CUL1) | Kd [1] | Kd (RBPJ) |
| --- | --- | --- | --- |
| B1 | binds | 47 nM | – |
| B2 | – | – | 47 nM |

Source: patent publication US20260023068A1, “USE OF A FBXO42 SPECIFIC INHIBITOR IN TREATING NOTCH SIGNALING-DEPENDENT DISEASE” (WESTLAKE UNIVERSITY, priority 2022, published 2026)
